Experiments:
[1] = test system: lethal endotoxemia, Balb/C mice; assay: Lethal endotoxemia (LPS) survival in mice; assay type: in vivo; settings: LPS 5 mg/kg i.p., male Balb/C mice, TN given i.p., survival monitored more than two weeks
Description: (§1) FIG. 6A-6C: Recombinant TN protected mice against lethal endotoxemia and sepsis. Male Balb/C mice were subjected to lethal endotoxemia (LPS, 5 mg/kg, i.p., Panel A) or sepsis by cecal ligation and puncture (CLP, Panel B, C), and recombinant TN produced in HEK293 (Panel A, B) or E. coli (Panel C) was given intraperitoneally at indicated dosing regimens. Animal survival rates were monitored for more than two weeks to ensure no later death. Shown in Panel B and C is a summary of two independent experiments with similar results.
(§2) Effects of TN or peptide agonist on LSI. Balb/C mice (both male and female, 7-8 weeks, 20-25 g) are subjected to lethal endotoxemia or sepsis as described above, and the recombinant TN is injected (i.p.) at various doses and time points (2, 24, and 48 h) after the onset of endotoxemia or sepsis. Their effects on the outcomes of LSI is assessed by comparing the long-term (two-week) survival rates between the TN-treated groups with saline vehicle-treated controls. By varying the time points (e.g., 2, 12, 24 or 36 h) when the first dose of TN will be given to animals, the therapeutic windows for the TN-based therapy is estimated. […] It will be critical to continue these exciting experiments using other dosing regimens to further validate TN's protective role in LSI.
Effects of TN or peptide agonist supplementation on LSI. Balb/C mice (both male and female, 7-8 weeks, 20-25 g) are subjected to lethal endotoxemia or sepsis as described above, and the recombinant TN will be injected (i.p.) at various doses and time points (2, 24, and 48 h) after the onset of endotoxemia or sepsis. Their effects on the outcomes of LSI will be assessed by comparing the long-term (two-week) survival rates between the TN-treated groups with saline vehicle-treated controls. By varying the time points (e.g., 2, 12, 24 or 36 h) when the first dose of TN will be given to animals, the therapeutic windows for the TN-based therapy will be estimated.

[2] = test system: HMGB1 release, human peripheral blood mononuclear cells (HuPBMCs); assay: LPS- or SAA-induced HMGB1 release in primary human peripheral blood mononuclear cells (Western blotting); assay type: cell-based; settings: for inhibition of LPS- or SAA-induced HMGB1 release: HuPBMCs / human monocytes, 16 h, TN from HEK293 or E. coli
Description: A, B, Primary murine peritoneal macrophages. C, Primary human peripheral blood mononuclear cells (HuPBMCs). Murine macrophages or human monocytes (HuPBMCs) were cultured in serum-free OPTI-MEM I medium, and stimulated with LPS or SAA for 16 h at the indicated concentrations. The extracellular HMGB1 levels were determined by Western blotting, and expressed as % of maximal stimulation by LPS or SAA alone.
Immune-modulating properties of tetranectin: To explore TN's immune-modulating properties, its effects on the LPS- and SAA-induced HMGB1 release were examined in murine macrophage and human monocyte cultures. […] This inhibition was TN-dose-dependent, evident at concentrations as low as 5.0 μg/ml, and became more dramatic (with 50-100% inhibition) at higher doses.
Effects of TN on the LPS-, IFN-γ-, or SAA-induced HMGB1 release. To elucidate the regulatory mechanisms of HMGB1 release, we will examine the impact of TN and its peptide agonists on the HMGB1 release induced by a wide array of inflammatory stimuli including the crude LPS [75], IFN-γ [76] and SAA [77], in macrophage and monocyte cultures. Primary peritoneal macrophages will be isolated from the Balb/C mice (both male and female, 7-8 weeks, 20-25 g) at 2-3 days after intraperitoneal injection of 2 ml thioglycollate broth (4%, Difco, Detroit, Mich.) as previously described. Human peripheral blood mononuclear cells (HuPBMCs) will be isolated from human blood obtained from the Long Island Blood Bank (NY) by density gradient centrifugation through Ficoll as previously described. At 80-90% confluence, macrophage/monocyte cultures will be stimulated with the crude LPS (Cat. No. L3012, Sigma-Aldrich), IFN-γ (Cat. No. 14777, Sigma-Aldrich), or SAA (Cat. No. 300-13, PeproTech) at different concentrations and for various time periods. The extracellular levels of HMGB1 in the culture medium will be determined by Western blotting as previously described.

[3] = test system: lethal sepsis (CLP), Balb/C mice; assay: Lethal sepsis by cecal ligation and puncture (CLP), survival in mice; assay type: in vivo; settings: male Balb/C mice, given intraperitoneally, survival monitored more than two weeks
Description: as §1
FIG. 9: N-terminal deletion TN mutant protected mice against lethal sepsis. Male Balb/C mice were subjected to lethal sepsis by cecal ligation and puncture (CLP), and recombinant deletion mutant (ΔTN) was given intrapeitoneally at indicated dosing regimens. Animal survival rates were monitored for more than two weeks to ensure no later death. Shown was a summary of two independent experiments with similar results.
FIG. 10: TN peptide agonist (P11) protected mice against lethal sepsis. Male Balb/C mice were subjected to lethal sepsis by cecal ligation and puncture (CLP), and TN peptide agonist, (P11, […]) (SEQ ID NO:11) was given intrapeitoneally at indicated dosing regimens. Animal survival rates were monitored for more than two weeks to ensure no later death. Shown was a summary of two independent experiments with N=8-18 animals per group.
FIG. 13A-13B: Tetranectin peptide agonists (P2 and P2-M/Nle) protected mice against lethal sepsis. Male Balb/C mice were subjected to lethal sepsis by cecal ligation and puncture (CLP), and TN peptide agonist, P2 (55-KVHMKCFLAFTQTKTF-70) (13A) (SEQ ID NO:2) or P2-M/Nle (54-TKVH(Nle)KSFLAFTQTKT-69) (13B) (SEQ ID NO:13) was given intraperitoneally at indicated dosing regimens. Animal survival rates were monitored for more than two weeks to ensure no later death. Shown was a summary of independent experiment with N=10 animals per group. The Kaplan-Meier method was used to compare the difference in mortality rates between groups. *, P<0.05 versus “CLP+Vehicle” group.
as §2
To explore the therapeutic potential of the TN-based strategies, the efficacy of TN-specific peptide agonists that would recapitulate the HMGB1-inhibiting capacities is tested using both animal models of lethal endotoxemia and sepsis. A series of peptide agonists have been designed, and chemically synthesized or biologically expressed as recombinant peptide (Table 1, FIG. 7). Peptide agonists will be given to the endotoxemic or septic mice intraperitoneally at various doses and time points after the onset of endotoxemia or sepsis. Their effects on the outcomes of LSI is assessed by comparing the long-term (two-week) survival rates between the peptide agonist groups and the saline vehicle-treated controls.
TN-specific peptide agonists are tested that would recapitulate the HMGB1-inhibiting capacities using both animal models of lethal endotoxemia and sepsis. Peptide agonists are given to the endotoxemic or septic mice intraperitoneally at various doses and time points after the onset of endotoxemia or sepsis. […]

B1: tetranectin (protein, listed as Homo sapiens)
chain: EPPTQKPKKIVNAKKDVVNTKMFEELKSRLDTLAQEVALLKEQQALQTVCLKGTKVHMKCFLAFTQTKTFHEASEDCISRGGTLGTPQTGSENDALYEYLRQSVGNEAEIWLGLNDMAAEGTWVDMTGARIAYKNWETEITAQPDGGKTENCAVLSGAANGKWFDKRCRDQLPYICQFGIV
B1 was tested. Which “protection against lethal endotoxemia (animal survival)” value (“protection against lethal endotoxemia” below) [1] did it give?
Its value is “significant protection”.

What about the “protection against lethal endotoxemia” value ([1]; listed as Recombinant TN) of the same molecule?
The value was “protected”.

What about the “protection against lethal endotoxemia” value ([1]; listed as recombinant TN) of the same molecule?
The value was “significant protection”.

And the “inhibition of LPS- or SAA-induced HMGB1 release” value [2]?
Its value is “dose-dependently inhibited”.

And the “inhibition of LPS- or SAA-induced HMGB1 release” value ([2]; listed as recombinant human TN protein)?
The value was “capable of inhibiting”.

What about the “lowest concentration at which inhibition of HMGB1 release was evident” value ([2]; human monocytes) of the same molecule?
The value was 5.0 µg/mL.

And the “inhibition of HMGB1 release at higher doses” value ([2]; human monocytes, doses above 5.0 μg/ml)?
Its value is 50-100%.

And the “protection against lethal sepsis (animal survival)” value (“protection against lethal sepsis” for short) [3]?
The value was “significant protection”.

And the “protection against lethal sepsis” value ([3]; listed as Recombinant TN)?
The value was “protected”.

And the “protection against lethal sepsis” value ([3]; listed as recombinant TN)?
The value was “significant protection”.

— patent US11124558B2, “Use of tetranectin and peptide agonists to treat inflammatory diseases” (The Feinstein Institutes for Medical Research, priority 2017, dated 2021)
